Source: publication PMC3795252, “SLP-76 Sterile α Motif (SAM) and Individual H5 α Helix Mediate Oligomer Formation for Microclusters and T-cell Activation*” (The Journal of Biological Chemistry, 2013)
Several values for one entry are separate records, joined by “and”; a condition that tells them apart may be missing. Identical values can stand only once.

Assays:
[1] = target: the molecule itself; test: dynamic light scattering; purified SAM domain at rising concentrations; 25 °C; DynaPro; hydrodynamic radius compared with radii estimated by HYDROPRO and GRAMM-X for monomer, dimer and tetramer; dimer from 10–20 μM, tetramer >50 μM
[2] = target: the molecule itself; test: MST; 10 nM NT-647-labelled protein titrated with the same protein unlabelled (0–90.5 μM, 1:1 dilutions); Monolith NT.115; 25 °C; 10 mM HEPES pH 7.5, 500 mM NaCl, 0.5 mM TCEP, 0.05% Tween 20; constant is of monomer to dimer

B1: SLP-76 SAM domain (residues 1–78), recombinant, His-tagged (domain or fragment, human, UniProt Q13094 1-78, looked up)
chain: MALRNVPFRSEVLGWDPDSLADYFKKLNYKDCEKAVKKYHIDGARFLNLTENDIQKFPKLRVPILSKLSQEINKNEER
modifications: NT-647 dye coupled to primary amines on the labelled copy used in MST (one label per protein molecule); the titrated copy is unlabelled
notes: SLP-76 (LCP2), human, N-terminal sterile alpha motif (SAM) domain, residues 1-78 (helices H1-H5); Cloned into the NdeI/BamHI sites of pET-20b(+); also called SLP-76 N-terminal SAM domain; H1–5; source: E. coli BL21(DE3), pET-20b(+), soluble fraction purified by Ni2+ column
[1]
  stoichiometry N: 2 and 4
[2]
  Kd: 2500 ± 900 nM
